Test results from paper PMC12780157 (Nature Communications, 2025).
Read-outs that look alike come from different tables or passages of the source.

Columns and labels:
[1] = molecular target: β-tubulin (αβ-tubulin heterodimer); assay: X-ray co-crystal structure at […] Å; format: binding
[2] = molecular target: recombinant Tubulin protein (cat# CSK-T240-B-T) (UniProt P02550); assay: ITC
[3] = molecular target: recombinant Tubulin protein (cat# CSK-T240-B-T) (UniProt P02550); assay: ITC; remark: listed apart in the source
[4] = molecular target: recombinant Tubulin protein (cat# CSK-T240-B-T) (UniProt P02550); assay: ITC; remark: listed apart in the source

Compound | Kd [1] [nM] | Kd [2] [nM] | Kd [3] [nM] | Kd [4] [nM]
COc1c(Cl)cc([C@@H]2c3cc4c(cc3C[C@H]3C(=O)NC(=O)N23)OCCO4)cc1Cl [KY216, (6R,10aS)-6-(3,5-dichloro-4-methoxyphenyl)-2,3,10a,11-tetrahydro-[1,4]dioxino[2,3-g]imidazo[1,5-b]isoquinoline-8,10(6H,9H)-dione] | 150 ± 10 | – | – | –
recombinant VASH2 protein (cat# YHK84701) (from UniProt Q86V25 1-355) (enzyme) | – | 1530 | 1490 | 520
